± gives the uncertainty stated by the source.
B1: Nucleolar transcription factor 1, residues 408 to 469; numbered along this chain, P17480 (parent)
chain: KRPVSAMFIFSEEKRRQLQEERPELSESELTRLLARMWNDLSEKKKAKYKAREAALKAQSER

Variants of: B1
Test: abundance fitness (aPCA) (normalised: wild type 0, dead -1); higher = more abundant; growth selection in yeast, the domain comes from the species named
Conditions: Homo sapiens

Variant | abundance fitness
KRPVPAMFIFSEEKRRQLQEERPELSESELTRLLARMWNDLSEKKKAKYKAREAALKAQSER [S5P] | -0.112 ± 0.09
KRPVEAMFIFSEEKRRQLQEERPELSESELTRLLARMWNDLSEKKKAKYKAREAALKAQSER [S5E] | 0.042 ± 0.094
KRPVIAMFIFSEEKRRQLQEERPELSESELTRLLARMWNDLSEKKKAKYKAREAALKAQSER [S5I] | -0.178 ± 0.096
KRPVWAMFIFSEEKRRQLQEERPELSESELTRLLARMWNDLSEKKKAKYKAREAALKAQSER [S5W] | -0.455 ± 0.052
KRPVCAMFIFSEEKRRQLQEERPELSESELTRLLARMWNDLSEKKKAKYKAREAALKAQSER [S5C] | -0.148 ± 0.15
KRPVNAMFIFSEEKRRQLQEERPELSESELTRLLARMWNDLSEKKKAKYKAREAALKAQSER [S5N] | 0.047 ± 0.12
KRPVQAMFIFSEEKRRQLQEERPELSESELTRLLARMWNDLSEKKKAKYKAREAALKAQSER [S5Q] | -0.115 ± 0.087
KRPVDAMFIFSEEKRRQLQEERPELSESELTRLLARMWNDLSEKKKAKYKAREAALKAQSER [S5D] | -0.02 ± 0.061
KRPVKAMFIFSEEKRRQLQEERPELSESELTRLLARMWNDLSEKKKAKYKAREAALKAQSER [S5K] | -0.041 ± 0.085
KRPVVAMFIFSEEKRRQLQEERPELSESELTRLLARMWNDLSEKKKAKYKAREAALKAQSER [S5V] | -0.187 ± 0.064
KRPVLAMFIFSEEKRRQLQEERPELSESELTRLLARMWNDLSEKKKAKYKAREAALKAQSER [S5L] | -0.164 ± 0.048
KRPVGAMFIFSEEKRRQLQEERPELSESELTRLLARMWNDLSEKKKAKYKAREAALKAQSER [S5G] | -0.031 ± 0.051
KRPVMAMFIFSEEKRRQLQEERPELSESELTRLLARMWNDLSEKKKAKYKAREAALKAQSER [S5M] | -0.196 ± 0.084
KRPVYAMFIFSEEKRRQLQEERPELSESELTRLLARMWNDLSEKKKAKYKAREAALKAQSER [S5Y] | -0.146 ± 0.15
KRPVTAMFIFSEEKRRQLQEERPELSESELTRLLARMWNDLSEKKKAKYKAREAALKAQSER [S5T] | -0.042 ± 0.057
KRPVSDMFIFSEEKRRQLQEERPELSESELTRLLARMWNDLSEKKKAKYKAREAALKAQSER [A6D] | -0.191 ± 0.083
KRPVSGMFIFSEEKRRQLQEERPELSESELTRLLARMWNDLSEKKKAKYKAREAALKAQSER [A6G] | -0.045 ± 0.059
KRPVSVMFIFSEEKRRQLQEERPELSESELTRLLARMWNDLSEKKKAKYKAREAALKAQSER [A6V] | -0.488 ± 0.065
KRPVSMMFIFSEEKRRQLQEERPELSESELTRLLARMWNDLSEKKKAKYKAREAALKAQSER [A6M] | -0.418 ± 0.094
KRPVSQMFIFSEEKRRQLQEERPELSESELTRLLARMWNDLSEKKKAKYKAREAALKAQSER [A6Q] | -0.331 ± 0.064
KRPVSRMFIFSEEKRRQLQEERPELSESELTRLLARMWNDLSEKKKAKYKAREAALKAQSER [A6R] | -0.401 ± 0.047
KRPVSTMFIFSEEKRRQLQEERPELSESELTRLLARMWNDLSEKKKAKYKAREAALKAQSER [A6T] | -0.44 ± 0.088

Variant | abundance fitness
KRPVSHMFIFSEEKRRQLQEERPELSESELTRLLARMWNDLSEKKKAKYKAREAALKAQSER [A6H] | -0.534 ± 0.12
KRPVSLMFIFSEEKRRQLQEERPELSESELTRLLARMWNDLSEKKKAKYKAREAALKAQSER [A6L] | -0.661 ± 0.06
KRPVSFMFIFSEEKRRQLQEERPELSESELTRLLARMWNDLSEKKKAKYKAREAALKAQSER [A6F] | -0.573 ± 0.093
KRPVSSMFIFSEEKRRQLQEERPELSESELTRLLARMWNDLSEKKKAKYKAREAALKAQSER [A6S] | -0.191 ± 0.076
KRPVSPMFIFSEEKRRQLQEERPELSESELTRLLARMWNDLSEKKKAKYKAREAALKAQSER [A6P] | -0.306 ± 0.15
KRPVSEMFIFSEEKRRQLQEERPELSESELTRLLARMWNDLSEKKKAKYKAREAALKAQSER [A6E] | -0.17 ± 0.067
KRPVSWMFIFSEEKRRQLQEERPELSESELTRLLARMWNDLSEKKKAKYKAREAALKAQSER [A6W] | -0.453 ± 0.076
KRPVSCMFIFSEEKRRQLQEERPELSESELTRLLARMWNDLSEKKKAKYKAREAALKAQSER [A6C] | -0.225 ± 0.11
TRPVSAMFIFSEEKRRQLQEERPELSESELTRLLARMWNDLSEKKKAKYKAREAALKAQSER [K1T] | -0.06 ± 0.096
WRPVSAMFIFSEEKRRQLQEERPELSESELTRLLARMWNDLSEKKKAKYKAREAALKAQSER [K1W] | -0.205 ± 0.072
VRPVSAMFIFSEEKRRQLQEERPELSESELTRLLARMWNDLSEKKKAKYKAREAALKAQSER [K1V] | -0.136 ± 0.11
YRPVSAMFIFSEEKRRQLQEERPELSESELTRLLARMWNDLSEKKKAKYKAREAALKAQSER [K1Y] | -0.105 ± 0.32
KRPYSAMFIFSEEKRRQLQEERPELSESELTRLLARMWNDLSEKKKAKYKAREAALKAQSER [V4Y] | -0.099 ± 0.069
KRPHSAMFIFSEEKRRQLQEERPELSESELTRLLARMWNDLSEKKKAKYKAREAALKAQSER [V4H] | -0.172 ± 0.15
KRPSSAMFIFSEEKRRQLQEERPELSESELTRLLARMWNDLSEKKKAKYKAREAALKAQSER [V4S] | -0.082 ± 0.053
KRPFSAMFIFSEEKRRQLQEERPELSESELTRLLARMWNDLSEKKKAKYKAREAALKAQSER [V4F] | -0.156 ± 0.078
KRPWSAMFIFSEEKRRQLQEERPELSESELTRLLARMWNDLSEKKKAKYKAREAALKAQSER [V4W] | -0.602 ± 0.072
KRPCSAMFIFSEEKRRQLQEERPELSESELTRLLARMWNDLSEKKKAKYKAREAALKAQSER [V4C] | -0.213 ± 0.08
KRPTSAMFIFSEEKRRQLQEERPELSESELTRLLARMWNDLSEKKKAKYKAREAALKAQSER [V4T] | -0.111 ± 0.078
KRPQSAMFIFSEEKRRQLQEERPELSESELTRLLARMWNDLSEKKKAKYKAREAALKAQSER [V4Q] | -0.099 ± 0.08
KRPPSAMFIFSEEKRRQLQEERPELSESELTRLLARMWNDLSEKKKAKYKAREAALKAQSER [V4P] | -0.238 ± 0.11

From the Human Domainome abundance scans (Beltran et al. 2025)
